Test results from patent US20170275350A1 (Scripps Research, published 2017).

T1: Protease activated receptor-1 (PAR1), endogenous on EA.hy.926 endothelial cells (human, UniProt P25116 42-425)
T1 sequence: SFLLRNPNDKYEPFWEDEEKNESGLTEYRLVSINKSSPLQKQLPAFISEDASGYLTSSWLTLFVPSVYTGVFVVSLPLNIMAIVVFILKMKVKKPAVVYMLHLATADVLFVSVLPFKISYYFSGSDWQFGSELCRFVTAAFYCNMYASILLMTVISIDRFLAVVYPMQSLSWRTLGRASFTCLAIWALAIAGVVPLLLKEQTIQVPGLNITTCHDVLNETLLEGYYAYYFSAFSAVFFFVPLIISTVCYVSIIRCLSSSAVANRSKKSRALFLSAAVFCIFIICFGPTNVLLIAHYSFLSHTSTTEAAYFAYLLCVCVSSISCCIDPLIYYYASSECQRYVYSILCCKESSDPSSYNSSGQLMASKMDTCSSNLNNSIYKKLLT


Legend:
[1] = tested on: Synthetic PAR1 N-terminal peptide TR33-62
[2] = target: Protease activated receptor-1 (PAR1), endogenous on EA.hy.926 endothelial cells (human) (UniProt P25116); experiment: cell-based or functional assay
[3] = target: T1, Protease activated receptor-1 (PAR1), …; experiment: cell-based or functional assay

Synthetic PAR1 N-terminal peptide TR33-62, sequence (chain, as listed by the source): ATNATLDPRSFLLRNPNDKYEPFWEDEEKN

Row | ERK1/2 phosphorylation in EA.hy.926 cells (immunoblot, ratio to total ERK1/2) [3] | Molecule | cleavage of the peptide (reverse phase HPLC, MALDI-TOF of fragments) [1] | other results
1 |  | Activated Protein C | APC cleaves this PAR1 peptide at Arg^46 as well as at Arg^41 | 
2 |  | Activated Protein C (from UniProt P04070 43-461) (enzyme) |  | ERK1/2 phosphorylation in EA.hy.926 cells (immunoblot, ratio to total ERK1/2) [2]: 1.5 fold; decrease of ATAP2 signal relative to WEDE15, on cell Western [2]: 50%
3 |  | Thrombin | the two fragments produced by thrombin (peaks A and D) corresponded to masses of 1,001 and 2,670 for cleavage at Arg^41 | 
4 | 1.5 fold | NPNDKYEPFWEDEEKNESGL [PAR1 peptide TR47-66] |  | 
5 | 3 fold | TFLLRNPNDK [TFLL peptide (TR42-51 with S42T)] |  | 
